Laboratory results taken from paper PMC3234234, “A Host Small GTP-binding Protein ARL8 Plays Crucial Roles in Tobamovirus RNA Replication” (PLoS Pathogens, 2011).

T1: AtTOM1-Cub-PLV (split-ubiquitin bait) (Arabidopsis thaliana, UniProt Q9FEG2 1-291)
T1 construct: Arabidopsis thaliana TOM1, seven-pass transmembrane protein; source: yeast two-hybrid fusion (split-ubiquitin, reporter strain L40); not shown: Cub-PLV, C-terminal, kept
T1 sequence (looked up): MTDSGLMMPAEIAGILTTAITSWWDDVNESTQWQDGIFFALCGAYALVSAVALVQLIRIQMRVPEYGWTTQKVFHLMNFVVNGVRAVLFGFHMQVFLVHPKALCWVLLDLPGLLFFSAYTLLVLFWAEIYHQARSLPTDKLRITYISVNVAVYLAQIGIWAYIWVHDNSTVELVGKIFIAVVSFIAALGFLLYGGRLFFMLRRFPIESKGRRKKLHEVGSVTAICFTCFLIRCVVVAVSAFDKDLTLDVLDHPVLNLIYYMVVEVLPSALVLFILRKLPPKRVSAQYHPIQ


Experiments:
[1] = molecular target: AtARL8a-Cub-PLV (split-ubiquitin bait) (Arabidopsis thaliana) (UniProt Q8VY57); assay: two-hybrid; split-ubiquitin assay in yeast reporter strain L40; Cub-PLV fusion as bait, NubG fusion as prey; beta-galactosidase activity (Miller units)
[2] = molecular target: T1, AtTOM1-Cub-PLV (split-ubiquitin bait); assay: as above; details: partners not purified

Molecule	fold weaker signal (beta-galactosidase) than the TOM1-helicase domain pair [1] [times weaker]	fold weaker signal (beta-galactosidase) than the TOM1-helicase domain pair [2] [times weaker]
NubG-HEL: helicase domain polypeptide of ToMV replication proteins (residues 648-1116 of the 130K protein) (domain or fragment)	13	
AtARL8a-NubG (split-ubiquitin prey) (natural protein, Arabidopsis thaliana, UniProt Q8VY57 1-184, looked up, Arabidopsis thaliana ARL8a; 'a DNA fragment corresponding to the AtARL8a-coding region' put in place of TOM1 in pTN-TOM1-NubG; also called ARL8-NubG; source: yeast two-hybrid fusion (split-ubiquitin, reporter strain L40); not shown: NubG, C-terminal, kept) MGLLEAFLNWLRSLFFKQEMELSLIGLQNAGKTSLVNVVATGGYSEDMIPTVGFNMRKVTKGNVTIKLWDLGGQPRFRSMWERYCRAVSAIVYVVDAADPDNLSVSKSELHDLLSKTSLNGIPLLVLGNKIDKPGALSKEALTDEMGLTSLTDREVCCFMISCKNSTNIDQVIDWLVKHSKSKN		6
